Drawing on patent EP0251446B1, “Non-human Carbonyl hydrolase mutants, DNA sequences and vectors encoding same and hosts transformed with said vectors” (GENENCOR INTERNATIONAL, INC., priority 1986, dated 1988), this text covers Km for 1 protein.

Test in all cases: Kinetics of p-nitroanilide substrate hydrolysis, M166
Holding throughout (assay type): biochemical, B. amyloliquefaciens
What all share (conditions): other: Table XIV, 156 Glu / 166 Met; value in parentheses; synthetic substrate with label as P-1 amino acid

Substrate in data set [1]: C[C@H](NC(=O)CCC(=O)O)C(=O)N[C@@H](C)C(=O)N1CCC[C@H]1C(=O)N[C@@H](CCC(=O)O)C(=O)Nc1ccc([N+](=O)[O-])cc1
From the text: (§1) Wild-type subtilisin was purified from B. subtilis culture supernatants expressing the B. amyloliquefaciens subtilisin gene (Wells, J.A., et al. (1983) Nucleic Acids Res. 11, 7911-7925) as previously described (Estell, D.A., et al. (1985) J. Biol. Chem. 260, 6518-6521). Details of the synthesis of tetrapeptide substrates having the form succinyl-L-AlaL-AlaL-ProL-[X]-p-nitroanilide (where X is the P1 amino acid) are described by DelMar, E.G., et al. (1979) Anal. Biochem. 99, 316-320. Kinetic parameters, Km(M) and kcat-(s-^1) were measured using a modified progress curve analysis (Estell, D.A., et al. (1985) J. Biol. Chem. 260, 6518-6521). Briefly, plots of rate versus product concentration were fit to the differential form of the rate equation using a non-linear regression algorithm. Errors in kcat and Km for all values reported are less than five percent. The various substrates in Table VIII are ranged in order of decreasing hydrophobicity. Nozaki, Y. (1971), J. Biol. Chem. 246, 2211-2217; Tanford C. (1978) Science 200, 1012).
(§2) To probe the change in substrate specificity caused by steric alterations in the S-1 subsite, position 166 mutants were kinetically analyzed versus P1 substrates of increasing size (i.e., Ala, Met, Phe and Tyr). Ratios of kcat/Km are presented in log form in Figure 15 to allow direct comparisons of transition-state binding energies between various enzyme-substrate pairs.
(§3) To isolate the contribution of electrostatics to substrate specificity from other chemical binding forces, these various single and double mutants were analyzed for their ability to bind and cleave synthetic substrates containing Glu, Gln, Met and Lys as the P-1 substrate amino acid. This permitted comparisons between side-chains that were more sterically similar but differed in charge (e.g., Glu versus Gln, Lys versus Met). Similarly, mutant enzymes were assayed against homologous P-1 substrates that were most sterically similar but differed in charge (Table XIV).
(§4) The kcat/Km ratios shown are the second order rate constants for the conversion of substrate to product, and represent the catalytic efficiency of the enzyme. These ratios are presented in logarithmic form to scale the data, and because log kcat/Km is proportional to the lowering of transition-state activation energy (△GT). Mutations at position 156 and 166 produce changes in catalytic efficiency toward Glu, Gln, Met and Lys P-1 substrates of 3100, 60, 200 and 20 fold, respectively.

Substrate in data set [2]: C[C@H](NC(=O)CCC(=O)O)C(=O)N[C@@H](C)C(=O)N1CCC[C@H]1C(=O)N[C@@H](CCC(N)=O)C(=O)Nc1ccc([N+](=O)[O-])cc1
Source text: as §1, §2, §3, §4

Substrate in data set [3]: CSCC[C@H](NC(=O)[C@@H]1CCCN1C(=O)[C@H](C)NC(=O)[C@H](C)NC(=O)CCC(=O)O)C(=O)Nc1ccc([N+](=O)[O-])cc1
Source text: as §1, §2, §3, §4

Substrate in data set [4]: C[C@H](NC(=O)CCC(=O)O)C(=O)N[C@@H](C)C(=O)N1CCC[C@H]1C(=O)N[C@@H](CCCCN)C(=O)Nc1ccc([N+](=O)[O-])cc1
Source text: as §1, §2, §3, §4

B1: B. amyloliquefaciens subtilisin variant Glu156/M166 (Gly166 to Met) (Bacillus amyloliquefaciens; G273M) (protein)
chain: AQSVPYGVSQIKAPALHSQGYTGSNVKVAVIDSGIDSSHPDLKVAGGASMVPSETNPFQDNNSHGTHVAGTVAALNNSIGVLGVAPSASLYAVKVLGADGSGQYSWIINGIEWAIANNMDVINMSLGGPSGSAALKAAVDKAVASGVVVVAAAGNEGTSGSSSTVMYPGKYPSVIAVGAVDSSNQRASFSSVGPELDVMAPGVSIQSTLPGNKYGAYNGTSMASPHVAGAAALILSKHPNWTNTQVRSSLENTTTKLGDSFYYGKGLINVQAAAQ
notes: at various amino acid residues within the mature form of the subtilisin molecule; made in house; host or cells: Bacillus subtilis BG2036
Turning to B1, the Km in data set [1] was 5.01 mM; in data set [2], 646 µM; in data set [3], 14.8 µM; in data set [4], 129 µM.

As usually defined, the Km is the substrate concentration at which the rate is half of its maximum.
